Broadly, the Kd is the constant that tells how readily two partners part at equilibrium. In general, koff refers to the rate constant with which the complex falls apart. By kon is commonly meant a measure of how fast the partners come together. The term EC50 denotes the concentration that produces a half-maximal response. The EC50 (read off the curve) is the concentration needed to bring the measured effect to its halfway point. Broadly, the IC50 is the midpoint of a concentration-inhibition curve.

Assay [1] concerns the target recombinant human tau (human, UniProt P10636 1-383). Nature of the assay: SPR (Biacore T200): antibody captured on an anti-mouse chip, recombinant human tau 10-0.14 nM as analyte, global 1:1 fit. As for the experimental part: Methods: SPR analysis was performed using a Biacore T200 to determine the binding kinetics of murine antibodies to recombinant human tau. To prepare a sensor surface, anti-mouse antibody (GE Life Sciences) was immobilized on sensor chip CM5 via amine coupling, and antibody was captured at a level to ensure maximum binding of 50 RU. Various concentrations of recombinant tau ranging from 10-0.14 nM were passed over the captured ligand at a flow rate of 50 μL/min in running buffer (HBS+0.05% P-20, 1 mg/mL BSA), for 180 sec association and 900 sec dissociation. Data were double-referenced to both an irrelevant sensor not containing antibody ligand, and 0 nM analyte concentration to account for the dissociation of ligand from the capture moiety. Data was then analyzed using a global 1:1 fit.

The target in assay [2] is T1, 4R tau fibrils (UniProt P10636-6 1-383, limits assumed).
T1 construct: Fibrils pelleted at 100,000 x g and coated on ELISA plates; also called fibrillar tau; recombinant tau fibrils of 4-repeat tau
T1 sequence (P10636 other isoform, or with tags, fused parts or gaps limits assumed): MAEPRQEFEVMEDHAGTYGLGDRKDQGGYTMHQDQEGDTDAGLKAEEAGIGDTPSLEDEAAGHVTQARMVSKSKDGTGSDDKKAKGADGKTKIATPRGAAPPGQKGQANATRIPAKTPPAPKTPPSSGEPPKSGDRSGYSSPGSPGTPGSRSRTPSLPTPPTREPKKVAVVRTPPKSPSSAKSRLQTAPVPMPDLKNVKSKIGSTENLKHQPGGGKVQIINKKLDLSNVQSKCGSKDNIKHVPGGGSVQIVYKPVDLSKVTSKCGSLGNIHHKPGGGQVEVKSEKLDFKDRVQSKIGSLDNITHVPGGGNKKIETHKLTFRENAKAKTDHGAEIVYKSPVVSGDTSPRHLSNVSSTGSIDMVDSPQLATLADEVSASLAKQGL
Nature of the assay: ELISA, biotinylated antibody on plate-coated preformed fibrils, 4-parameter fit. The protocol:
(§1) ELISA plates were coated with preformed fibrils (overnight at 4° C. in 50 mM carbonate-bicarbonate buffer, pH 9.6), washed, and blocked with 1% BSA in PBS. After blocking, plates were incubated with the indicated concentrations of biotinylated primary antibody in 0.1% BSA/PBS for 1h at room temperature. Plates were washed, and then incubated with streptavidin-HRP in 0.1% BSA/PBS for 45 min. Plates were then washed and developed with OPD, and absorbance was measured at 490 nm. Binding curves were analyzed using a 4-parameter log fit.
A general note: ELISA stands for enzyme-linked immunosorbent assay.

In assay [3] the target is T2, recombinant human 4R0N tau (human, UniProt P10636 2-758).
T2 construct: also called P10636-6
T2 sequence (P10636 other isoform, or with tags, fused parts or gaps limits assumed): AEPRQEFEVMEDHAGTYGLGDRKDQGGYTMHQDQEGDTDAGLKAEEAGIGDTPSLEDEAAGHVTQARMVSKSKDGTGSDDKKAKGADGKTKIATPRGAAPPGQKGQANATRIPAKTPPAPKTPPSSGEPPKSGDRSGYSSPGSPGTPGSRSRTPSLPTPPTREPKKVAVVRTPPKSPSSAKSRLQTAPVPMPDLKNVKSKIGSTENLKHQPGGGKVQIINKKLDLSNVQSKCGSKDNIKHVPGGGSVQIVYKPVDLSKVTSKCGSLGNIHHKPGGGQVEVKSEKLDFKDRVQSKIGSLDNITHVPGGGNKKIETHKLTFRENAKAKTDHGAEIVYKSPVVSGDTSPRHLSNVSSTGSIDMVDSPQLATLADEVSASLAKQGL
Description: SPR, Biacore T200, antibody captured on anti-human Fc, tau as analyte, 1:1 fit. The protocol: Target binding analysis was performed using a Biacore T200 to compare the binding affinity of humanized 3D6 variants to recombinant human 4R0N tau. Anti-Human Fc antibody was immobilized on sensor chip CM3 via amine coupling, and humanized 3D6 variants were captured to equivalent levels. […] Data was blank subtracted to both an irrelevant sensor not containing antibody and 0 nM analyte concentration. Analysis was performed using a global 1:1 fit with Biacore Evaluation software.
(In general: SPR reads the build-up and loss of mass on a sensor chip optically.)

Assay [4] has as its target T3, mixed fibrils of 3-repeat and 4-repeat tau (UniProt P10636 1-352; P10636 1-383, limits assumed).
T3 construct: Made by seeded growth of 3-repeat and 4-repeat tau; also called fibrils containing both 3R and 4R tau
Nature of the assay: ELISA on plates coated with preformed mixed 3R/4R tau fibrils, biotinylated antibody, streptavidin-HRP, OPD, A490 [binding to mixed fibrils]. As for the experimental part: as §1

Assay [5] deals with biotinylated recombinant tau (UniProt P10636-6 1-383, limits assumed, biotinylated). Description: competition ELISA: inhibition of biotinylated tau binding to plate-bound low molecular weight heparin. As for the experimental part: To test the ability of murine and humanized 3D6 variants to interrupt tau interaction with heparin, ELISA plates coated with low molecular weight heparin were first blocked with 2% BSA in PBS for 2h at room temperature. Plates were washed with TBST. After blocking, plates were incubated with biotinylated recombinant tau along with indicated concentrations of unlabeled antibody in 1% BSA/PBS for one hour at room temperature. Plates were again washed, and then incubated with streptavidin-HRP in 0.1% BSA/PBS for 45 min. Plates were then washed and developed with OPD, and absorbance was measured at 490 nm. Inhibition curves were analyzed using a 4-parameter log fit.

T3 sequence (P10636 other isoform, or with tags, fused parts or gaps limits assumed, chain 1 of 2): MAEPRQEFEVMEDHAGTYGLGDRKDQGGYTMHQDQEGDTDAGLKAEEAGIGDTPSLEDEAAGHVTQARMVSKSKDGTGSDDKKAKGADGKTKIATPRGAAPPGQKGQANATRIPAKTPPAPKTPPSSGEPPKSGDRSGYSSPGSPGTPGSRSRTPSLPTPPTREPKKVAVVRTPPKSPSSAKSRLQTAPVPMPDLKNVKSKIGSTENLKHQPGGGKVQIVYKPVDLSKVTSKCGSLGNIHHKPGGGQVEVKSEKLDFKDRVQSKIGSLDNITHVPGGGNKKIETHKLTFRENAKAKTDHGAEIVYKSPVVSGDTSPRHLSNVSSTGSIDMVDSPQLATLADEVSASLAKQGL

B1: 5G8 (antibody, V domains shown)
VH: EVQLQQSGAELVRSGASVRLSCTASGFNIKDYYMHWVRQRPEQGLEWIGWIDPENGDTVYAPKFQGKATMTSDTSSNTAYLHLSSLTSEDTAVYYCSPLDFWGQGTTLTVSS
VL: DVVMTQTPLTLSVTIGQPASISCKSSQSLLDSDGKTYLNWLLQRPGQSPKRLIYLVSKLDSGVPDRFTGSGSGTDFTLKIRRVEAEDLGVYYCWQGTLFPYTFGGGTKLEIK
In the case of B1, in assay [1], the Kd was 6.78 nM, the koff turned out to be 0.00254 s⁻¹ and the on-rate (kon) was determined as 375000 M⁻¹ s⁻¹.

B2: 8A4 (antibody, V domains shown)
VH: EVQLQQSGAELVRPGALVKLSCKASGFNIKDYYIHWVKQRPEQGLEWIGWIDPENGDTVYDPQFQDKANITADTSSNTAYLQLSSLTSEGTAVYYCSTLDFWGQGTTLTVSS
VL: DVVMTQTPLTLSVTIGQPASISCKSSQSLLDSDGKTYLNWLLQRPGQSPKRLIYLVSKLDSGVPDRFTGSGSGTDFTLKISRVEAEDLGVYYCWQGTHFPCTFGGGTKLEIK
Regarding B2, in assay [1], the Kd is 3.8 nM, the koff came out at 0.00227 s⁻¹ and the kon came out at 599000 M⁻¹ s⁻¹.

B3: hu3D6VHv1bA11/hu3D6VLv2 (antibody, V domains shown)
VH: EVQLVQSGAEVVKPGATVKISCKASGFNIKDYYLHWVRQRPGQGLEWIGWIDPENGDTVYDPKFQGRATITADTSTDTAYLQLGSLTSEDTAVYFCSTLDFWGQGTLVTVSS
VL: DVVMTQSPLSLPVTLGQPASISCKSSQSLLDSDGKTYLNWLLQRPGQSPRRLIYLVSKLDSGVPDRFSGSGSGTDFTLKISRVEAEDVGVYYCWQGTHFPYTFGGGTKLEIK
notes: Humanized antibody expressed in 293 cells, captured by anti-human Fc; also called parental hu3D6VHv1bA11/hu3D6VLv2; h3D6Hu5 heavy chain variable region
In assay [2], B3 showed an EC50 of 0.237 nM. Moreover, in assay [3], the Kd is 0.181 nM, the koff amounted to 0.00074 s⁻¹ and the kon amounted to 4.17e+06 M⁻¹ s⁻¹. The half-maximal effective concentration (EC50 (read off the curve)) in assay [4] was ~0.9 nM. Also, the IC50 in assay [5] came to 0.565 nM.

B4: hu3D6VHv1bA11/L2-DIM4 (antibody, V domains shown)
VH: B3 VH
VL: DVVMTQSPLSLPVTLGQPASISCKSSQSLLDSDGKTYLNWLQQRPGQSPRRLIYLVGKRDSGVPDRFSGSGSGTDFTLKISRVEAEDVGVYYCWQGTHFPYTFGGGTKLEIK
Turning to B4, the EC50 in assay [2] was determined as 0.192 nM. In assay [3], the Kd came to 0.0948 nM, the koff amounted to 0.000535 s⁻¹ and the kon was found to be 5.65e+06 M⁻¹ s⁻¹. The “EC50 (read off the curve)” value in assay [4] is ~0.7 nM. Also, the IC50 in assay [5] came to 0.423 nM.

These data come from patent US20200369755A1 (PROTHENA BIOSCIENCES, published 2020).
